* marks the point of attachment. BODIPYFLEthylmaleimide = Cc1cc(C)n2c1C=C1C=CC(CCC(=O)NCCN3C(=O)CC(*)C3=O)=[N+]1[B-]2(F)F
T1: CC2 (WT) (murine, N-terminal acetyl group; C-terminal amide)
T1 construct: Forms a trimer at 10 uM in gel filtration; also called CC2 peptide; CC2 wild type
T1 peptide: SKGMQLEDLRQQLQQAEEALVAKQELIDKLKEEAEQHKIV


How the values were obtained:
CC2 (WT) [1] = target: T1, CC2 (WT); assay: fluorescence anisotropy, 1 µM BODIPY-Ant-CC2 titrated with 1-125 µM CC2
Protocol: (§1) (A) Direct titration of BODIPY-Ant-CC2 (1 μM) with CC2 by fluorescence anitropy. The concentration of CC2 was determined by amino acid analysis. Anisotropy values of BODIPY-Ant-CC2 in milliunits (mA) were plotted against an increasing concentration of the CC2 peptide. […] The two dashed lines represent a stoichiometric titration and intersect at an CC2 concentration of […]. Given the 1 μM concentration of the BODIPY-Ant-CC2, this gives a complex stoechiometrie of 0.8. (B) Direct titration of BODIPY-Ant-LZ (0.1 μM) with CC2 by fluorescence anitropy. The anisotropy values of the BODIPY-Ant-LZ alone (white bar) or in the presence of the CC2 peptide (30 μM, grey bar; 100 μM, black bar) are given in milliunits (mA).
(§2) Anisotropy measurements were performed with a PTI […]™ fluorometer equipped with polarizers for the excitation and emission beams. This instrument uses a PMT in the L-configuration. […] Steady-state fluorescence anisotropy was expressed as millianisotropy (mA) and was calculated according to the equations: (1) A=(IVV−GIVH)/(IVV+2GIVH); (2) G=IHV/IHH.; where A is anisotropy, G is a correction factor for wavelength-dependent distortion and I is the fluorescence intensity component (subscript referring to the vertical and horizontal positioning at the excitation and emission polarizers, respectively). […]

[2] = target: the molecule itself; assay: gel filtration (Superdex 75), self-association
Protocol: (§3) The oligomeric states of peptides were determined by filtration as described in Traincard et al., 2003. In brief, 500 μl samples were loaded on a SUPERDEX™ 75 HR 10/30 column equilibrated in 50 mM Tris-HCl pH 8.0 containing 200 mM NaCl and 0.1 mM DDM, at a constant flow rate of 0.4 ml/min. The presence of the DDM detergent was added in the equilibrium buffer to minimize the adsorption in the column and to increase the peptide recovery. The column was calibrated in the same equilibrium buffer with blue dextran 2000 (void volume), dithioerythritol (total volume), bovine serum albumin (67 kDa, Rs=35.2 Å), ovalbumine (43 kDa, Rs=27.5 Å), chymotrypsinogen A (25 kDa, Rs=21.1 Å), ribonuclease A (13.7 kDa, Rs=16.4 Å), cytochrome C (12.4 kDa, Rs=17.7 Å) and aprotinin (6.5 KDa, Rs=13.5 Å).

[3] = target: NEMO (NF-kB essential modulator), murine (murine, UniProt O88522 1-412); assay: cell-based or functional assay
Chain of NEMO (NF-kB essential modulator), murine (O88522 other isoform, or with tags, fused parts or gaps): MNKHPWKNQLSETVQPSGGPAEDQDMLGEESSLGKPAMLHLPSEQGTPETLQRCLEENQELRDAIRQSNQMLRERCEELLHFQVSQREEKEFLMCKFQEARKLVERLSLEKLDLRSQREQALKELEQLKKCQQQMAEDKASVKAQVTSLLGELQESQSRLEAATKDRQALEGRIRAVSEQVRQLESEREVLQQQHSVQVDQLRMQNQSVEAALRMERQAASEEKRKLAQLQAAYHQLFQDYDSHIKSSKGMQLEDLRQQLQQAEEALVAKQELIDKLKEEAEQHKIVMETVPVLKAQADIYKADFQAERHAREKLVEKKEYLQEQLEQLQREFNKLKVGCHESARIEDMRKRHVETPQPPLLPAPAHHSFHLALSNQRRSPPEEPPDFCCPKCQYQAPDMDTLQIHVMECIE

CC2 (WT) [4] = target: T1, CC2 (WT); assay: fluorescence anisotropy, 1 µM BODIPY-Ant-CC2 titrated with CC2
Protocol: as §1, §2

[5] = target: the molecule itself; assay: gel filtration (Superdex 75) at 10 µM, self-association
Protocol: as §3
The antennapedia sequence is a protein transduction domain (PTD) which adopts an alpha-helical amphiphatic structure (Prochiantz, 2000, Curr. Opin. Cell Biol.). […] To examine the effect of N-fusion of the antennapedia peptide on the oligomerization properties of the CC2 and the LZ peptides, the present inventors analyzed peptides containing or not containing the antennapedia sequence at their N-terminus by gel filtration. […]

Row | Kd (CC2 (WT) [1]) | IC50 of inhibition of LPS-induced NF-κB activation (β-galactosidase reporter, 70Z3-C3 cells) [3] | fold reduction of LPS-induced NF-κB activation at 10 µM peptide (stringent β-galactosidase assay, 70Z3-C3 cells) [3] | stoichiometry (CC2 (WT) [4]) | Binder | binding result [2] | binding result [5]
1 | 15.2 µM | 22 µM | 1.7 fold | 0.8 | BODIPY-Ant-CC2 (WT) (Synthetic peptide; elutes as a monomer in gel filtration at 10 uM; also called Ant-CC2 BODIPY peptide) peptide: Ac-C(BODIPYFLEthylmaleimide)RQIKIWFQNRRMKWKKSKGMQLEDLRQQLQQAEEALVAKQELIDKLKEEAEQHKIV-NH2 | no binding (tested: 10 µM) | –
2 | – | – | – | – | Ac-LKAQADIYKADFQAERHAREKLVEKKEYLQEQLEQLQREFNKL-NH2 (Forms a dimer at 10 uM in gel filtration; also called LZ peptide; LZ wild type) [LZ (WT)] | – | binds

Source: patent US20080207517A1 (INSTITUT PASTEUR, published 2008)
